These results are taken from publication doi:10.1101/2022.06.11.495734 (bioRxiv, 2022).

Data set [1] deals with the molecule itself. Description: non-reducing SDS-PAGE.
Data set [2] concerns the molecule itself. Description: native gel or EMSA. A general note: A gel shift assay detects complexes by their altered migration in electrophoresis.
Data set [3] deals with the molecule itself. The data set is described as follows: SDS-PAGE after LAFS treatment.
Data set [4] deals with the molecule itself. The data set is described as follows: reducing SDS-PAGE and immunoblot of parasite lysate. For orientation: A western blot detects proteins with antibodies after separation by electrophoresis.

B1: recombinant Plasmodium falciparum 3D7 60S stalk ribosomal protein P2, 6x His-tag (natural protein, UniProt O00806 1-112, looked up)
chain: MAMKYVAAYLMCVLGGNENPSTKEVKNVLGAVNADVEDEVLNNFIDSLKGKSCHELITDGLKKLQNIGGGVAAAPAGAAAVETAEAKKEDKKEEKKEEEEEEEDDLGFSLFG
Turning to B1, the “stoichiometry N” value in data set [1] amounted to 2; in data set [2], 4.

B2: rec.PfP2 pre-reduced and alkylated with iodoacetamide (natural protein, Plasmodium falciparum 3D7, UniProt O00806 1-112, looked up)
chain: MAMKYVAAYLMCVLGGNENPSTKEVKNVLGAVNADVEDEVLNNFIDSLKGKSCHELITDGLKKLQNIGGGVAAAPAGAAAVETAEAKKEDKKEEKKEEEEEEEDDLGFSLFG
modifications: all cysteine residues pre-reduced and alkylated with Iodoacetamide (IAA)
Turning to B2, in data set [3], the “stoichiometry N” value came out at 4.

B3: Plasmodium falciparum P2 protein, endogenous in wild type 3D7 parasites (natural protein, UniProt O00806 1-112, looked up)
chain: MAMKYVAAYLMCVLGGNENPSTKEVKNVLGAVNADVEDEVLNNFIDSLKGKSCHELITDGLKKLQNIGGGVAAAPAGAAAVETAEAKKEDKKEEKKEEEEEEEDDLGFSLFG
For the protein B3, in data set [4], the “stoichiometry N” value worked out at 4.

B4: PfP2-HA of transgenic P. falciparum 3D7 parasites (natural protein, Plasmodium falciparum 3D7, UniProt O00806 1-112, looked up)
chain: MAMKYVAAYLMCVLGGNENPSTKEVKNVLGAVNADVEDEVLNNFIDSLKGKSCHELITDGLKKLQNIGGGVAAAPAGAAAVETAEAKKEDKKEEKKEEEEEEEDDLGFSLFG
Regarding B4, the “stoichiometry N” value in data set [4] came to 4.

By stoichiometry N is commonly meant the number of molecules, sites or subunits per partner or assembly.
